Source: publication PMC5448004

Molecular target: HepA (helicase protein A), archaeal HerA homolog of Thermus thermophilus, product of gene TTC0147 (Thermus thermophilus HB27)
Experiment: negative-stain single-particle electron microscopy; purified HepA at 0.3 mg/mL in 20 mM Tris-HCl pH 7.5, pre-incubated with 1-10 mM ATP (30 min, 65 °C), 2% uranyl acetate; 2D classification and 3D reconstruction with C6 symmetry

stoichiometry N: 6
Substance: HepA (helicase protein A), archaeal HerA homolog of Thermus thermophilus, product of gene TTC0147 (enzyme)
